Blank lines part the entries; values can stand above or below the binder they belong to.
Assays:
[1] = target: T1, recombinant cynomolgus MARCO protein (cynomolgus, UniProt A0A2K5X0Z2 65-519); assay: Biacore (SPR), recombinant cyno MARCO
T1 construct: Construct not described; also called cyno MARCO; cynoMARCO
T1 sequence: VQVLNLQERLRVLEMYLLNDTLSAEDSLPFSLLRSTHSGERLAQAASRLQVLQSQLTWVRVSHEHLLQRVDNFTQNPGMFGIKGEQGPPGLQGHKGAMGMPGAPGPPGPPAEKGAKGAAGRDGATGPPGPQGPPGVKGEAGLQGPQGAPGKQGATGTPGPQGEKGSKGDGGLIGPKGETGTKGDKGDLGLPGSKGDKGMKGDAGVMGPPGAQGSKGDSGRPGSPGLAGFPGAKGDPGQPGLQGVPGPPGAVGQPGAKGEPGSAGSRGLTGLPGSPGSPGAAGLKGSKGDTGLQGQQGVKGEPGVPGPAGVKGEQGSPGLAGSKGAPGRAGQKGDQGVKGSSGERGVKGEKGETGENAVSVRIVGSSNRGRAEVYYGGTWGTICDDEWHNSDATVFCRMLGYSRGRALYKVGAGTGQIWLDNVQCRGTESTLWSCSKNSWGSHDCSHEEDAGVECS

[2] = target: T2, Cynomolgus MARCO, full length, on cells (cynomolgus, UniProt A0A2K5X0Z2 1-519); assay: flow cytometry, cells overexpressing cyno MARCO; cyn (second of hu/cyn)
T2 construct: whole, on cells; also called cyno MARCO; CyMARCO
T2 sequence: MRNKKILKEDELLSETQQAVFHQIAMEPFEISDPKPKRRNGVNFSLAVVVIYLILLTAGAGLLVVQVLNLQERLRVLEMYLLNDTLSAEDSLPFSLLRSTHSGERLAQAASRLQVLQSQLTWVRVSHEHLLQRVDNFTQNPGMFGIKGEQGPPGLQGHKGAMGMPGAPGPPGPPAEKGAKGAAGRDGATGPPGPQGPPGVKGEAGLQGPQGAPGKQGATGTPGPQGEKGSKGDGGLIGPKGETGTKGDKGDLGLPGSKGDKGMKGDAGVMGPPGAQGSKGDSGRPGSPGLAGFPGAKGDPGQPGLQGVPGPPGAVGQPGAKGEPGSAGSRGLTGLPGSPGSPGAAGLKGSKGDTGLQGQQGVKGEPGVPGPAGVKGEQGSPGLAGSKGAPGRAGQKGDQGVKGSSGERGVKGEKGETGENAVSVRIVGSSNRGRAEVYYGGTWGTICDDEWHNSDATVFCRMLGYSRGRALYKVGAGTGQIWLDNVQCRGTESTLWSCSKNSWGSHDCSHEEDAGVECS

[3] = target: T3, Mouse MARCO, full length, on cells (mouse, UniProt Q60754 1-518); assay: flow cytometry, 293T (MuMARCO)
T3 construct: whole, on cells; the cell type is named under assay; also called muMARCO; MuMARCO
T3 sequence (looked up): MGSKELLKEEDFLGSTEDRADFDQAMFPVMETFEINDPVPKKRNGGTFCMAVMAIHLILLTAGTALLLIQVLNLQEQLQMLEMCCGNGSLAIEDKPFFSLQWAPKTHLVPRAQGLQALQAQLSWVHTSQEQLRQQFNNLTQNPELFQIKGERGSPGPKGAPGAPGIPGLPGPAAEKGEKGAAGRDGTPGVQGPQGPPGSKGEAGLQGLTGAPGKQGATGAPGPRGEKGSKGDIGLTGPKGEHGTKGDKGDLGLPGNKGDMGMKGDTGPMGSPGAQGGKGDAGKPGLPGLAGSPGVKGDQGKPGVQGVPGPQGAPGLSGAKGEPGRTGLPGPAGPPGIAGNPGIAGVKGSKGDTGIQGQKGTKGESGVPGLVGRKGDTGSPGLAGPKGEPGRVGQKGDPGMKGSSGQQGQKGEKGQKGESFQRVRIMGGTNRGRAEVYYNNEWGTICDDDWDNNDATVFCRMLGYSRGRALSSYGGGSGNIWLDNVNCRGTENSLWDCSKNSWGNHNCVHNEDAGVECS

mVar3 (RG3028) = target: T4, mVar3 (RG3028) (mouse, UniProt Q60754 150-518); assay: binding to variant proteins, data not shown
T4 construct: Mouse MARCO with the human residues Q452, Y472 and K473 (already in the entry)
T4 chain: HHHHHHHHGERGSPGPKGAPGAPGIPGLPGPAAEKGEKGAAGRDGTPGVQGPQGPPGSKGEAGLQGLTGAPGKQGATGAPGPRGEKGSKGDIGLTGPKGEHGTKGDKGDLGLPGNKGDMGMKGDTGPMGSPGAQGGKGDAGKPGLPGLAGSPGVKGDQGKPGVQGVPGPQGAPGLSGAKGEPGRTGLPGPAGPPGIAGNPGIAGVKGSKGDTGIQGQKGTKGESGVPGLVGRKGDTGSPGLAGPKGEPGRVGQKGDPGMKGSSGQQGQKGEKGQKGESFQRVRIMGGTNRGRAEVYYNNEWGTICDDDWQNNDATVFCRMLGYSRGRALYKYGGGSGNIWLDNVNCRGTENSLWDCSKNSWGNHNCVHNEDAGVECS
Method in brief: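 Binding to MARCO variant proteins was measured by biolayer interferometry at 37° C in ProbeLife kinetics buffer. Antibodies (200 nM) were captured on anti-mouse or anti-human Fc probes for 120 s between 60 s baselines. This was followed by association with 200 nM variant antigen and 5-10 minutes dissociation.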

Kd [1]: 1.65 nM
EC50 [2]: 1.16 nM
B1: PI-3015-AB (antibody, human IgG1, kappa)
heavy: not shown
light: DIQMTQSPSSLSASVGDRVTITCRASEGISNDLAWYQQKPGKAPKLLIYAASRLQSGVPSRFSGSGSGTDYTLTISSMQPEDFATYYCQQSYKYPLTFGQGTKLEIKRTVAAPSVFIFPPSDEQLKSGTASVVCLLNNFYPREAKVQWKVDNALQSGNSQESVTEQDSKDSTYSLSSTLTLSKADYEKHKVYACEVTHQGLSSPVTKSFNRGEC

EC50 [3]: 1.52 nM
B2: PI-HX-3061 (antibody, rat IgG2a)
heavy: EVQLVESGGGLVQPGSSLKLSCVASKFTFSNYGMNWIRQAPKKGLEWIALIYYNSNNKYYADSVKGRFTISRDNSKNTLYLEMNSLRSEDTAMYYCAKSLTGGSDYFDSWGQGVMVTVSSAETTAPSVYPLAPGTALKSNSMVTLGCLVKGYFPEPVTVTWNSGALSSGVHTFPAVLQSGLYTLTSSVTVPSSTWPSQTVTCNVAHPASSTKVDKKIVPRNCGGDCKPCICTGSEVSSVFIFPPKPKDVLTITLTPKVTCVVVDISQDDPEVHFSWFVDDVEVHTAQTRPPEEQFNSTFRSVSELPILHQDWLNGRTFRCKVTSAAFPSPIEKTISKPEGRTQVPHVYTMSPTKEEMTQNEVSITCMVKGFYPPDIYVEWQMNGQPQENYKNTPPTMDTDGSYFLYSKLNVKKEKWQQGNTFTCSVLHEGLHNHHTEKSLSHSP
light: DVQMTQSPSYLAASPGESVSISCKASKSIGTFLAWYQEKPEKTNKLLIYSGSTLQSGTPSRFSGSGSGTDFTLTIRNLEPEDFAVYYCQQHDEYPFTFGSGTKLEIKRADAAPTVSIFPPSTEQLATGGASVVCLMNNFYPRDISVKWKIDGTERRDGVLDSVTDQDSKDSTYSMSSTLSLTKADYESHNLYTCEVVHKTSSSPVVKSFNRNEC
notes: Parental rat hybridoma, rat IgG2a; cross reactive with human and mouse MARCO

binding result (mVar3 (RG3028)): binds
B3: PI-3010-AB (antibody, human IgG1, kappa)
heavy: not shown
light: DIQMTQSPASLSTSLGETVSIECLASEGISNDLAWYQQKSGKSPQLLIYAASRLQDGVPSRFSGSGSGTRYSLKISGMQPEDEADYFCQQSYKYPLTFGSGTKLEIKRTVAAPSVFIFPPSDEQLKSGTASVVCLLNNFYPREAKVQWKVDNALQSGNSQESVTEQDSKDSTYSLSSTLTLSKADYEKHKVYACEVTHQGLSSPVTKSFNRGEC

— patent US20220153832A1 (PIONYR IMMUNOTHERAPEUTICS, published 2022)
